Common to all, as to settings: both partners purified
Experiment [1] concerns the target T1, DNMT1^4KR (recombinant, residues 600–1,600) (human, UniProt P26358 600-1600, K1111 to Arginine | K1113 to Arginine | K1115 to Arginine | K1117 to Arginine).
T1 construct: human DNMT1, residues 600-1,600 (DNMT1 if not specified); source: E. coli Rosetta (DE3), purified
Nature of the experiment: pull-down; GST–USP7 proteins incubated with DNMT1 proteins 2 h at 4 °C in 25 mM HEPES pH 7.4, 150 mM NaCl, 5% glycerol, 0.05% Triton X-100, 1 mM DTT, then held on glutathione resin; SDS–PAGE, Coomassie.

Experiment [2] deals with T2, DNMT1^2KQ (recombinant, residues 600–1,600) (human, UniProt P26358 600-1600, K1111 to Glutamine | K1113 to Glutamine).
T2 construct: human DNMT1, residues 600-1,600 (DNMT1 if not specified); source: E. coli Rosetta (DE3), purified
Described as above.

Experiment [3] has as its target T3, DNMT1^2KR (recombinant, residues 600–1,600) (human, UniProt P26358 600-1600, K1111 to Arginine | K1113 to Arginine).
T3 construct: human DNMT1, residues 600-1,600 (DNMT1 if not specified); source: E. coli Rosetta (DE3), purified
The description is as above.

Experiment [4] addresses T4, DNMT1 (residues 600–1,600) (human, UniProt P26358 600-1600).
T4 construct: human DNMT1, residues 600-1,600; Modified pET-28a plasmid; also called WT DNMT1 (residues 600–1,600); source: E. coli Rosetta (DE3), purified (Ni-NTA, on-column cleavage, anion exchange, SEC)
Nature of the experiment: ITC; 0.05 mM DNMT1 (600–1,600) titrated with 0.5 mM USP7 (560–1,102); iTC200; 18 °C; 10 mM HEPES pH 8.0, 300 mM NaCl. In general terms: Isothermal titration calorimetry measures the heat released or taken up as one component is titrated into another.

In experiment [5] the target is T4, DNMT1 (residues 600–1,600). Nature of the experiment: pull-down; GST–USP7 proteins incubated with DNMT1 proteins 2 h at 4 °C in 25 mM HEPES pH 7.4, 150 mM NaCl, 5% glycerol, 0.05% Triton X-100, 1 mM DTT, then held on glutathione resin; SDS–PAGE, Coomassie.

Changes are numbered by the printed parent chain. In names and notes the source's numbering stands.

T4 sequence (P26358 600-1600): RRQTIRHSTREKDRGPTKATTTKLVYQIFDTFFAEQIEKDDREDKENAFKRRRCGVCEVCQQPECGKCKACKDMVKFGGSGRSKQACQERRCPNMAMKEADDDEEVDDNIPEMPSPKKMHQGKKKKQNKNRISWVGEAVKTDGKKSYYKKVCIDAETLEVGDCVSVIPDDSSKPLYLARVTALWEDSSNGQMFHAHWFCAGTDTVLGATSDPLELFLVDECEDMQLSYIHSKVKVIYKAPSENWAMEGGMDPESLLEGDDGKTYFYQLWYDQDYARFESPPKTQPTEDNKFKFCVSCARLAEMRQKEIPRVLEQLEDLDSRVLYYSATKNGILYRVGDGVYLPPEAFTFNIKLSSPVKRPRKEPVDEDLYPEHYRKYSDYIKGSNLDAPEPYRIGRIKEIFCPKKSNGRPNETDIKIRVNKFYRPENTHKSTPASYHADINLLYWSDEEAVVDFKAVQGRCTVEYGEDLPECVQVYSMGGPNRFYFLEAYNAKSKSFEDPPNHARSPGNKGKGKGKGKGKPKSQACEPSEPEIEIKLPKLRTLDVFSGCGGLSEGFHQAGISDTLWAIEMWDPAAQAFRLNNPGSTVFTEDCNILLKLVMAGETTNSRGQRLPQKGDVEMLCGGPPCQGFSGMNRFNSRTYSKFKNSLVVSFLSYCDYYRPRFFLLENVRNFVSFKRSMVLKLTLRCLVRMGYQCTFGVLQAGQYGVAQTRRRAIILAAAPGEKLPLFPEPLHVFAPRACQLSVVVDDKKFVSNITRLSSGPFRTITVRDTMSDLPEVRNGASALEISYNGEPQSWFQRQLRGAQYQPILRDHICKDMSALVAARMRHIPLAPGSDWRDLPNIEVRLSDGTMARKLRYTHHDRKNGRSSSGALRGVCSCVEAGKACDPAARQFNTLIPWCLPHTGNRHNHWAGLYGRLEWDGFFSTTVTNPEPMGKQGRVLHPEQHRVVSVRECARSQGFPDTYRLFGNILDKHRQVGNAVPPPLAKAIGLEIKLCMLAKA
T1 sequence (P26358 other isoform, or with tags, fused parts or gaps with the stated changes): as the sequence (P26358 600-1600) above, with K512R, K514R, K516R, K518R counted along it
T2 sequence (P26358 other isoform, or with tags, fused parts or gaps with the stated changes): as the sequence (P26358 600-1600) above, with K512Q, K514Q counted along it
T3 sequence (P26358 other isoform, or with tags, fused parts or gaps with the stated changes): as the sequence (P26358 600-1600) above, with K512R, K514R counted along it

B1: GST–TUD^USP7 (tandem UBL domains of USP7, residues 560–1,102) (domain or fragment, human, UniProt Q93009 560-1102, looked up)
chain: EAHLYMQVQIVAEDQFCGHQGNDMYDEEKVKYTVFKVLKNSSLAEFVQSLSQTMGFPQDQIRLWPMQARSNGTKRPAMLDNEADGNKTMIELSDNENPWTIFLETVDPELAASGATLPKFDKDHDVMLFLKMYDPKTRSLNYCGHIYTPISCKIRDLLPVMCDRAGFIQDTSLILYEEVKPNLTERIQDYDVSLDKALDELMDGDIIVFQKDDPENDNSELPTAKEYFRDLYHRVDVIFCDKTIPNDPGFVVTLSNRMNYFQVAKTVAQRLNTDPMLLQFFKSQGYRDGPGNPLRHNYEGTLRDLLQFFKPRQPKKLYYQQLKMKITDFENRRSFKCIWLNSQFREEEITLYPDKHGCVRDLLEECKKAVELGEKASGKLRLLEIVSYKIIGVHQEDELLECLSPATSRTFRIEEIPLDQVDIDKENEMLVTVAHFHKEVFGTFGIPFLLRIHQGEHFREVMKRIQSLLDIQEKEFEKFKFAIVMMGRHQYINEDEYEVNLKDFEPQPGNMSHPRPWLGLDHFNKAPKRSRYTYLEKAIKIHN
notes: Modified pGEX-6P-1 plasmid; also called GST–USP7 (truncation); wild-type GST–TUD^USP7; source: E. coli BL21(DE3), purified
B1: the binding result in experiment [1], in experiment [2] and in experiment [3] was “binds” in each case.

B2: USP7 (residues 560–1,102), tag removed (domain or fragment, human, UniProt Q93009 560-1102, looked up)
chain: B1 chain
notes: The methods name a modified pGEX-6P-1 plasmid but a Ni-NTA purification with on-column cleavage; also called TUD^USP7; source: E. coli BL21(DE3), purified (Ni-NTA, on-column cleavage, anion exchange, SEC)
With B2, in experiment [4], the Kd (usually the constant that tells how readily two partners part at equilibrium) was determined as 600 nM.

B3: GST–TUD^USP7 D762A (domain or fragment, human, UniProt Q93009 560-1102, looked up)
chain: B1 chain with D203A
notes: also called D762A^USP7; source: E. coli BL21(DE3), purified
Take B3: the binding result in experiment [5] is “binds”.

B4: GST–TUD^USP7 E744A (domain or fragment, human, UniProt Q93009 560-1102, looked up)
chain: B1 chain with E185A
notes: also called E744A^USP7; source: E. coli BL21(DE3), purified
Consider B4, for which the binding result in experiment [5] is listed as “binds”.

Values taken from paper PMC4432644, “Molecular mechanism for USP7-mediated DNMT1 stabilization by acetylation” (Nature Communications, 2015).
